Reference: patent US20210403552A1 (SHANGHAI GENBASE BIOTECHNOLOGY, published 2021)

T1: mouse CLDN18.2 (mouse, UniProt P56857 10-264)
T1 construct: over-expressed on HEK293T cells by lentivirus; also called mCLDN18.2; murine CLDN18.2
T1 chain: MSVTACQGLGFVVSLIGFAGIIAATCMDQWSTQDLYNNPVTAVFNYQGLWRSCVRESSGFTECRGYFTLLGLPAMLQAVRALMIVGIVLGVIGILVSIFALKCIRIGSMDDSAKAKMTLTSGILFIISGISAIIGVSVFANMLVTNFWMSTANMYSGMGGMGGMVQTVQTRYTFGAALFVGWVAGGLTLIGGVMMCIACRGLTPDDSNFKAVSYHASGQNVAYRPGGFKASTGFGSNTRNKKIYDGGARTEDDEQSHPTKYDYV


Legend:
human CLDN18.2 [1] = target: T2, human CLDN18.2 (human); assay: imaging cytometry (% fluorescent cells), HEK293T-hCLDN18.2 cells
T2 construct: over-expressed on HEK293T or OCUM-1 cells by lentivirus; KATO-III and NUGC4 gastric cancer cells express it naturally; also called hCLDN18.2; hCLDNA18.2
Experimental: (§1) 10,000 cells were plated in 100 μL of DMEM containing 10% FBS per well in a flat-bottomed 96-well plate. After the cells adhered or were settled to the bottom of the wells overnight, the supernatant was removed on the next day. 3-Fold gradient dilution of antibody was performed by diluting 1/3 of the total volume (i.e., 100 μL) in 200 μL of DMEM. 100 μL of the diluted antibody (the supernatants of fused clones or subclones was used in the screening) was added to each well of the cell plate, 100 μL of DMEM was added to the corresponding negative control well, and incubation was carried out for 1 hour at room temperature. After removing the supernatant, 100 μL of secondary antibody (5 μg/mL, diluted in DMEM) was added to each well, and incubated at room temperature for 0.5 hours. The supernatant was removed after staining, followed by washing with PBS once. 100 μL of PBS was added to each well, and then reading was carried out on the cytometer.
A full-field scanning cytometer (Nexcelom, Celigo® Image Cytometer) was used to measure the readings of the experimental plate. During the measurement, high-speed scanning imaging of the cells in the well was simultaneously performed in the green fluorescent channel corresponding to the secondary antibody and in the bright field channel. The cells that bound the antibody were counted in the image obtained from the green fluorescent channel under the parameters set in accordance with the morphology and fluorescence intensity of the fluorescently labeled cells, and the adhered cells were counted in the image obtained from the bright field channel under the parameters set in accordance with the morphology of the cells. […] The data analysis was performed using GraphPad.

human CLDN18.2 [2] = target: T2, human CLDN18.2; assay: cell-based or functional assay
human CLDN18.2 [3] = target: T2, human CLDN18.2; assay: cell-based or functional assay; remark: listed apart in the source
mouse CLDN18.2 = target: T1, mouse CLDN18.2; assay: imaging cytometry (% fluorescent cells), HEK293-mCLDN18.2 cells
Source text: (§2) HEK293T-hCLDN18.2 and OCUM-1-hCLDN18.2 expressing human CLDN18.2 (hCLDN18.2), or HEK293T-mCLDN18.2 expressing mouse CLDN18.2 (mCLDN18.2) and the corresponding negative control cell line HEK293T were used; or HEK293T-hCLDN18.1 and CHOS-hCLDN18.1 expressing human CLDN18.1 (hCLDN18.1) were used. DyLight488 goat anti-mouse IgG (Abcam, Catalog No. ab97015) or DyLight488 goat anti-human IgG (Abcam, Catalog No. ab97003) was used as secondary antibody. Binding curves were generated by using the following method.
as §1
(§3) A full-field scanning cytometer (Nexcelom, Celigo® Image Cytometer) was used to measure the readings of the experimental plate. During the measurement, high-speed scanning imaging of the cells in the well was simultaneously performed in the green fluorescent channel corresponding to the secondary antibody and in the bright field channel. The cells that bound the antibody were counted in the image obtained from the green fluorescent channel under the parameters set in accordance with the morphology and fluorescence intensity of the fluorescently labeled cells, and the adhered cells were counted in the image obtained from the bright field channel under the parameters set in accordance with the morphology of the cells.

human CLDN18.1 = target: T3, human CLDN18.1 (human, UniProt P56856 1-261); assay: imaging cytometry, CHOS-hCLDN18.1 cells
T3 construct: over-expressed on HEK293T or CHOS cells by lentivirus; also called hCLDN18.1
T3 sequence (P56856 whole entry): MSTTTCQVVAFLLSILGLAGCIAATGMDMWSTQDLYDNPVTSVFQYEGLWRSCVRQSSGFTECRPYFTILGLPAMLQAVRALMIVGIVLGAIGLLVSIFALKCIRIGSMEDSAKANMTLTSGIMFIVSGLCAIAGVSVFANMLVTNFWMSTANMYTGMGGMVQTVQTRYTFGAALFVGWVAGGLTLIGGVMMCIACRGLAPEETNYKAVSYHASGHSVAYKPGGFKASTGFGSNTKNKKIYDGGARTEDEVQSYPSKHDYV
Source text: as §2, §1, §3

human CLDN18.2 [4] = target: T2, human CLDN18.2; assay: imaging cytometry (% fluorescent cells), OCUM1-hCLDN18.2 cells
Source text: as §2, §1, §3

human CLDN18.2 [5] = target: T2, human CLDN18.2; assay: imaging cytometry (% fluorescent cells), HEK293-hCLDN18.2 cells
Source text: as §2, §1, §3

human CLDN18.2 [6] = target: T2, human CLDN18.2; assay: cell-based or functional assay; remark: listed apart in the source

EC50 (human CLDN18.2 [1]) | CDC EC50, HEK293T-hCLDN18.2 target cells, human serum (human CLDN18.2 [2]) | ADCC EC50, HEK293T-hCLDN18.2 target cells, human PBMC effectors (human CLDN18.2 [3]) | EC50 (mouse CLDN18.2) | binding result (human CLDN18.1) | EC50 (human CLDN18.2 [4]) | EC50 (human CLDN18.2 [5]) | Internalization percentage (%), HEK293T-hCLDN18.2 cells, flow cytometry, 10 µg/mL antibody (human CLDN18.2 [6]) | Binder
0.03 µg/mL | 1.65 µg/mL | 0.001 µg/mL |  |  |  |  |  | 10B11-chIgG1 (antibody, V domains shown, human-mouse chimeric antibody, human IgG1/kappa constant regions) VH: QVQMKESGAELVKPGASVKISCKASGYAFSTYWMDWVKQRPGKGLEWIGQIYPGNGDTNYNGKFKGKATLTADKSSSTADMQLSSLTSEDSAVYFCARLGYGNSFTYWGQGTLVTVSA VL: DIQVTQSPSSLTVTAGEKVTMSCKSSQSLLNSGNQKNYLTWYQQKPGQPPKLLIYWASTRESGVPDRFTGSGFGTDFTLTISSVQAEDLAVYYCQNAYFYPFTFGSGTKLEIKR
0.108 µg/mL | 5.17 µg/mL | 0.0249 µg/mL |  |  |  |  | -2.2% | 27B5-chIgG1 (antibody, V domains shown, human-mouse chimeric antibody, human IgG1/kappa constant regions) VH: QVQLQQPGTELVKPGASVKLSCKASGYTFTSYWMHWVKQRPGQGLEWIGNIHPSNGGSNHNEKFKSKATLTVDKSSSTAYMQLSSLTSEDSAVYYCAPIYYGNSLAYWGHGTLVTVSA VL: DVVMTQSPSSLTVTAGEKVTMSCKSSQSLLNSGNQKNYLTWYQQKPGQPPKLLLYWASTRESGVPDRFTGSGSGTDFTLTISSVQAEDLAVYYCQNSYFYPFTFGSGTKLEIKR
 |  |  | 0.035 µg/mL | no binding | 0.135 µg/mL | 0.038 µg/mL |  | 10B11 (antibody, V domains shown, murine monoclonal antibody purified from hybridoma culture supernatant) VH: QVQMKESGAELVKPGASVKISCKASGYAFSTYWMDWVKQRPGKGLEWIGQIYPGNGDTNYNGKFKGKATLTADKSSSTADMQLSSLTSEDSAVYFCARLGYGNSFTYWGQGTLVTVSA VL: DIQVTQSPSSLTVTAGEKVTMSCKSSQSLLNSGNQKNYLTWYQQKPGQPPKLLIYWASTRESGVPDRFTGSGFGTDFTLTISSVQAEDLAVYYCQNAYFYPFTFGSGTKLEIK
 |  |  | 0.032 µg/mL | no binding | 0.146 µg/mL | 0.04 µg/mL |  | 37B1 (antibody, V domains shown, murine monoclonal antibody purified from hybridoma culture supernatant) VH: EVRLQQSGPELVKPGASVKMSCKASGYSFTDYNMHWVKQSHGKSPEWVGYINPNKGGTGYNQKFKGKATLTVNKSSSTANMELRSLTSEDSAVYYCARIWYGNSFAYWGQGTLVTVSA VL: DVVMTQSPSSLTVTAGEKVTMSCKSSQSLLNSGNQKNYLTWYQQKPGQPPKLLIYWASTRESGVPDRFTGSGSGTDFTLTISSVQAEDLAVYFCQNDYFYPFTFGSGTKLEIK
 |  |  | 0.026 µg/mL | no binding | 0.097 µg/mL | 0.034 µg/mL |  | 44A8 (antibody, V domains shown, murine monoclonal antibody purified from hybridoma culture supernatant) VH: EVRLQQSGPELVKPGASVKMSCKASGYTFTDYNMHWVKQSHGKSLEWIGYINPKNGGIRYNQKFTGKATLTVNKSSSTAYMELRSLTSEDSAVYYCARGGYYGNTLDNWGQGTSVTVSS VL: DIVMTQSPSSLTLTAGEKVTMSCKSSQSLLNSGNQKNYLTWYQQKPGQPPKLLIYWASTSESGVPDRFTGSGSGTDFTLTISSVQAEDLAIYYCQNAYFYPWTFGGGTKLEIK
 |  |  | 0.033 µg/mL | no binding | 0.142 µg/mL | 0.041 µg/mL |  | 27B5 (antibody, V domains shown, murine monoclonal antibody purified from hybridoma culture supernatant) VH: QVQLQQPGTELVKPGASVKLSCKASGYTFTSYWMHWVKQRPGQGLEWIGNIHPSNGGSNHNEKFKSKATLTVDKSSSTAYMQLSSLTSEDSAVYYCAPIYYGNSLAYWGHGTLVTVSA VL: DVVMTQSPSSLTVTAGEKVTMSCKSSQSLLNSGNQKNYLTWYQQKPGQPPKLLLYWASTRESGVPDRFTGSGSGTDFTLTISSVQAEDLAVYYCQNSYFYPFTFGSGTKLEIK
 |  |  | 0.026 µg/mL | no binding | 0.092 µg/mL | 0.028 µg/mL |  | 44F7 (antibody, V domains shown, murine monoclonal antibody purified from hybridoma culture supernatant) VH: QVQLQQSGAELVRPGASVKMSCKASGYTFTSYNMHWVKQAPRQGLEWIGTIYPGNGDTSYNQKFKGKATLTVDKSSSTAYMQLSSLTSEDSAVYFCARGGYYGNSLDYWGQGTTLTVSS VL: DIQMTQSPSSLTVTAGEKVTMSCKSSQSLLNSGNQKNYLTWYQQKPGQPPKLLIYWASTRESGVPDRFTGSGSGTDFTLTISSVQAEDLAVYYCQNAYYYPFTFGSGTKLEIK

Further lines, the binder ahead of its results:

Binder | EC50 (human CLDN18.2 [1]) | CDC EC50, HEK293T-hCLDN18.2 target cells, human serum (human CLDN18.2 [2]) | ADCC EC50, HEK293T-hCLDN18.2 target cells, human PBMC effectors (human CLDN18.2 [3]) | EC50 (mouse CLDN18.2) | binding result (human CLDN18.1) | EC50 (human CLDN18.2 [4]) | EC50 (human CLDN18.2 [5]) | Internalization percentage (%), HEK293T-hCLDN18.2 cells, flow cytometry, 10 µg/mL antibody (human CLDN18.2 [6])
9F3-chIgG1 (antibody, V domains shown, human-mouse chimeric antibody, human IgG1/kappa constant regions) VH: EVRLQQSGPELVKPGASVKIPCKASGYKFTDYNMDWVKQSHGKSLEWIGEINPNNGGTIYNQKFKGKATLTVDKSSSTAYMELRSLTSEDTAVYYCARIYYGNSFAYWGQGTLVTVSS VL: DIVMTQSPSSLTVTAGEKVTMSCKSSQSLLNSGNLKNYLTWYQQKPGQPPKLLIYWASTRESGVPDRFTGSGSGTDFTLTISSVQAEDLAVYYCQNDYFYPLTFGAGTKLEIKR | 0.104 µg/mL | 1.86 µg/mL | 0.008 µg/mL |  |  |  |  | 
9F3 (antibody, V domains shown, murine monoclonal antibody purified from hybridoma culture supernatant) VH: EVRLQQSGPELVKPGASVKIPCKASGYKFTDYNMDWVKQSHGKSLEWIGEINPNNGGTIYNQKFKGKATLTVDKSSSTAYMELRSLTSEDTAVYYCARIYYGNSFAYWGQGTLVTVSS VL: DIVMTQSPSSLTVTAGEKVTMSCKSSQSLLNSGNLKNYLTWYQQKPGQPPKLLIYWASTRESGVPDRFTGSGSGTDFTLTISSVQAEDLAVYYCQNDYFYPLTFGAGTKLEIK |  |  |  | 0.043 µg/mL | no binding | 0.15 µg/mL | 0.053 µg/mL | 
2F12 (antibody, V domains shown, murine monoclonal antibody purified from hybridoma culture supernatant) VH: EVQLVESGGGLVKPGGSLKLSCAASGFTFSDYGIHWVRQAPEKGLEWVAYISSGSSTIYYADTVKGRFTISRDNAKNTLFLQMTSLRSEDTAIYYCAKWDRGNCFDYWGQGTTLTVSS VL: DIVLTQSPSSLTVTAGEKVTMSCKSSQSLLNSGNQKKYLTWYQQKVGQPPKLLIYWASIRECGVPDRFTGSGSGTDFILTISSVQAEDLAVYYCQNAYSYPLTFGAGTKLELK |  |  |  | 0.036 µg/mL | no binding | 0.186 µg/mL | 0.041 µg/mL | 
5F9-chIgG1 (antibody, V domains shown, human-mouse chimeric antibody, human IgG1/kappa constant regions) VH: QVQLQQSGAELVKPGASVKLSCKASGYTFTSYWMHWVKQRPGQGLEWIGMIHPNSVSTNYNEKFKSKATLTVDKSSSTAYMQLSSLTSEDSAVYYCAVYFDYWGQGTTLTVSS VL: DIQVTQSPSSLSASLGERVSLTCRASQDIGSSLNWLQQEPDGTIKRLIYASSSLNSGVPKRFSVSRSGSDYSLTISSLESEDFVDYYCLQYATSPPTFGGGTKLEIKR | 0.283 µg/mL | 5.25 µg/mL | 0.0197 µg/mL |  |  |  |  | 9.3%
1D10-chIgG1 (antibody, V domains shown) VH: QVQLQQPGAELVKPGASVKLSCKASGYTFTSYWMHWVKQRPGQGLEWIGMIYPNSGSINYNEKFKNKATLTVDKSSSTAYMQLSSLTSEDSAVYFCSVYFDYWGQGTTLTVSS VL: DIQGTQSPSSLSASLGERVSLTCRASQDIGSSLNWLQQEPDGTIKRLIYATSSLDSGVPKRFSVSRSGSDYSLTISSLESEDFVDYYCLQYASSPPTFGGGTKLEIKR |  |  |  |  |  |  |  | 28.7%
